Tests used:
MetA = assay: In-vitro characterization of purified mutant and wild type MetA enzymes (assay of Lawrence, modified); format: biochemical, E. coli
Protocol: PCR was used to amplify and then clone the five metA mutant genes identified as pCL-A#10, pCL-A#11, pCL-A#32, pCL-A#37, and pCL-A#41, into the pET30a vector. All constructs were subjected to DNA sequence analysis to confirm the presence of mutations. The genes were cloned with a C-terminus His tag for enzyme purification. The enzymes were overexpressed, purified and the activity was measured in the presence of different levels of methionine and SAMe, as described by Lawrence, J. Bacteriol., 109:8-11, 1972. The only modifications to the assay were that multiple points were taken and that the reaction was quenched with guanidine.

MetK [1] = assay: MetK mutants radioactive assay in vitro ([methyl-14C]methionine to SAMe); format: biochemical, E. coli; settings: 5 minute reaction time; C-terminal His tagged proteins unless untagged
Protocol: The metK gene from E. coli (Accession number AP—003499 or BAE77005) was cloned and overexpressed with either an N-terminal or a C-terminal His tag in pET28b vector. Site directed mutagenesis was performed using the C-terminal His tagged metK clone to generate the desired mutants. Expression of the mutant MetK proteins was confirmed.
The MetK mutants were purified (using the C-terminal His tag) and assayed in vitro. The wild type C-terminal His-tagged MetK protein was used as a control. The mutants were assayed using a radioactive assay. The assay conditions were as follows: • Assay Mix: • 1.0 mL 0.5 M HEPES/KOH, pH 8.0 • 0.5 mL 1.0 M KCl • 0.2 mL 1.0 M MgCl2 • 1.0 mL 100 mM ATP (disodium salt, pH 8.0 with KOH) • 0.1 mL 50 mM methionine • 0.1 mL NEN [methyl-^14C]methionine • 6.6 mL H2O • 25 mM EDTA pH 8.0 stop for assays.
45 μl of assay mix was added to an Eppendorf tube and 5 μL of enzyme (normalized data shown in Table 13. The reaction was incubated at room temperature (or 25° C.) for a desired period (1 to 10 minutes). The reaction was stopped with the addition of 150 μL of 25 mM EDTA. 100 μL of the reaction was spotted onto a 2.5 cm diameter Whatman P-81 phosphocellulose filter circle (labeled in pencil). The filters were washed with 3 L of distilled water, air-dried and placed in scintillation vials with aquasol. The emissions were counted using a window that extends from ^14C to about 0. Assay efficiency and quench levels were determined by adding a known amount of counts of pure ^14C-SAM and processing through the whole procedure. Backgrounds are typically<100 cpm (total counts ca. 10^5 cpm per reaction).

MetK [2] = settings: literature reference; cited from earlier work
[3] = control (no Met or SAM), U = formation of 1 μmole of CoA per minute at room temperature

B1: #11 (protein, listed as Escherichia coli)
chain: MPIRVPDELPAVNFLREENVFVMTTSRAPGQEIRPLKVLILNLMPKKIETENQFLRLLSNSPLQVDIQLLRIDSRESRNTPAEHLNNFYCNFEDIQDQNFDGLIVTGAPLGLVGFNDVAYWPQIKQVLEWSKDHVTSTLSVCWAVQAALNILYGIPKQTRTEKLSGVYEHHILHPHALLTRGFDDSFLAPHSRYADFPAALIRDYTDLEILAETEEGDAYLFASKDKRIAFVTGHPEYDAQTLAQEFFRDVEAGLDPDVPYNYFPHNDPQNTPRASWRSHGNLLFTNWLNYYVYQITPYDLRHMNPTLD
MetA; control
  % of specific activity retention: 100%
MetA; [3]
  Specific activity (U/mg): 479 U/mg
MetA; methionine and SAM inhibition
  feed-back inhibition resistance compared to the wild type enzyme: most resistant
MetA; w/10 mM SAM
  % of specific activity retention: 82%
  Specific activity (U/mg): 395 U/mg
MetA; w/ 100 mM Met
  % of specific activity retention: 94%
  Specific activity (U/mg): 451 U/mg
MetA; w/ 300 mM Met
  % of specific activity retention: 56%
  Specific activity (U/mg): 282 U/mg
MetA; w/ 300 mM Met, listed as metA #11
  % of specific activity retention: 55%

B2: w.t.: wild type E. coli MetA enzyme (homoserine succinyltransferase), C-terminus His tag, purified (protein, UniProt P07623 2-309, looked up)
Homoserine …: PIRVPDELPAVNFLREENVFVMTTSRASGQEIRPLKVLILNLMPKKIETENQFLRLLSNSPLQVDIQLLRIDSRESRNTPAEHLNNFYCNFEDIQDQNFDGLIVTGAPLGLVEFNDVAYWPQIKQVLEWSKDHVTSTLFVCWAVQAALNILYGIPKQTRTEKLSGVYEHHILHPHALLTRGFDDSFLAPHSRYADFPAALIRDYTDLEILAETEEGDAYLFASKDKRIAFVTGHPEYDAQTLAQEFFRDVEAGLDPDVPYNYFPHNDPQNTPRASWRSHGNLLFTNWLNYYVYQITPYDLRHMNPTLD
modifications: C-terminal His tag
notes: wild type E. coli MetA enzyme (homoserine succinyltransferase), C-terminus His tag, purified
MetA; control
  % of specific activity retention: 100%
MetA; [3]
  Specific activity (U/mg): 386 U/mg
MetA; w/10 mM SAM
  % of specific activity retention: 2.9%
  Specific activity (U/mg): 11 U/mg
MetA; w/ 100 mM Met
  % of specific activity retention: 7.6%
  Specific activity (U/mg): 29 U/mg

B3: Gly 77 Val (protein, UniProt P0A817 2-384, looked up, variant G77V)
S-adenosylmethionine synthase: AKHLFTSESVSEGHPDKIADQISDAVLDAILEQDPKARVACETYVKTGMVLVGGEITTSAWVDIEEITRNTVREIVYVHSDMGFDANSCAVLSAIGKQSPDINQGVDRADPLEQGAGDQGLMFGYATNETDVLMPAPITYAHRLVQRQAEVRKNGTLPWLRPDAKSQVTFQYDDGKIVGIDAVVLSTQHSEEIDQKSLQEAVMEEIIKPILPAEWLTSATKFFINPTGRFVIGGPMGDCGLTGRKIIVDTYGGMARHGGGAFSGKDPSKVDRSAAYAARYVAKNIVAAGLADRCEIQVSYAIGVAEPTSIMVETFGTEKVPSEQLTLLVREFFDLRPYGLIQMLDLLHPIYKETAAYGHFGREHFPWEKTDKAQLLRDAAGLK
MetK [1]
  Activity (CPM SAMe/ μg purified protein/min): 6.9 CPM SAMe/ μg purified protein/min

B4: Cys 90 Ala (protein, UniProt P0A817 2-384, looked up, variant C90A)
S-adenosylmethionine synthase: AKHLFTSESVSEGHPDKIADQISDAVLDAILEQDPKARVACETYVKTGMVLVGGEITTSAWVDIEEITRNTVREIGYVHSDMGFDANSAAVLSAIGKQSPDINQGVDRADPLEQGAGDQGLMFGYATNETDVLMPAPITYAHRLVQRQAEVRKNGTLPWLRPDAKSQVTFQYDDGKIVGIDAVVLSTQHSEEIDQKSLQEAVMEEIIKPILPAEWLTSATKFFINPTGRFVIGGPMGDCGLTGRKIIVDTYGGMARHGGGAFSGKDPSKVDRSAAYAARYVAKNIVAAGLADRCEIQVSYAIGVAEPTSIMVETFGTEKVPSEQLTLLVREFFDLRPYGLIQMLDLLHPIYKETAAYGHFGREHFPWEKTDKAQLLRDAAGLK
MetK [1]
  Activity (CPM SAMe/ μg purified protein/min): Same as WT
MetK [2]
  Expected Effect on SAMe synth: % of WT activity: Only 10% of WT

B5: Asp 118 Asn (protein, UniProt P0A817 2-384, looked up, variant D118N)
S-adenosylmethionine synthase: AKHLFTSESVSEGHPDKIADQISDAVLDAILEQDPKARVACETYVKTGMVLVGGEITTSAWVDIEEITRNTVREIGYVHSDMGFDANSCAVLSAIGKQSPDINQGVDRADPLEQGAGNQGLMFGYATNETDVLMPAPITYAHRLVQRQAEVRKNGTLPWLRPDAKSQVTFQYDDGKIVGIDAVVLSTQHSEEIDQKSLQEAVMEEIIKPILPAEWLTSATKFFINPTGRFVIGGPMGDCGLTGRKIIVDTYGGMARHGGGAFSGKDPSKVDRSAAYAARYVAKNIVAAGLADRCEIQVSYAIGVAEPTSIMVETFGTEKVPSEQLTLLVREFFDLRPYGLIQMLDLLHPIYKETAAYGHFGREHFPWEKTDKAQLLRDAAGLK
MetK [1]
  Activity (CPM SAMe/ μg purified protein/min): 1.3 CPM SAMe/ μg purified protein/min
MetK [2]
  Expected Effect on SAMe synth: kcat reduction: kcat reduction of ~ 103 fold

B6: WT Untagged: untagged wild type MetK protein, Markham lab (protein, UniProt P0A817 2-384, looked up)
S-adenosylmethionine synthase: AKHLFTSESVSEGHPDKIADQISDAVLDAILEQDPKARVACETYVKTGMVLVGGEITTSAWVDIEEITRNTVREIGYVHSDMGFDANSCAVLSAIGKQSPDINQGVDRADPLEQGAGDQGLMFGYATNETDVLMPAPITYAHRLVQRQAEVRKNGTLPWLRPDAKSQVTFQYDDGKIVGIDAVVLSTQHSEEIDQKSLQEAVMEEIIKPILPAEWLTSATKFFINPTGRFVIGGPMGDCGLTGRKIIVDTYGGMARHGGGAFSGKDPSKVDRSAAYAARYVAKNIVAAGLADRCEIQVSYAIGVAEPTSIMVETFGTEKVPSEQLTLLVREFFDLRPYGLIQMLDLLHPIYKETAAYGHFGREHFPWEKTDKAQLLRDAAGLK
MetK [1]
  Activity (CPM SAMe/ μg purified protein/min): 5600 CPM SAMe/ μg purified protein/min

B7: Asp 238 Asn (protein, UniProt P0A817 2-384, looked up, variant D238N)
S-adenosylmethionine synthase: AKHLFTSESVSEGHPDKIADQISDAVLDAILEQDPKARVACETYVKTGMVLVGGEITTSAWVDIEEITRNTVREIGYVHSDMGFDANSCAVLSAIGKQSPDINQGVDRADPLEQGAGDQGLMFGYATNETDVLMPAPITYAHRLVQRQAEVRKNGTLPWLRPDAKSQVTFQYDDGKIVGIDAVVLSTQHSEEIDQKSLQEAVMEEIIKPILPAEWLTSATKFFINPTGRFVIGGPMGNCGLTGRKIIVDTYGGMARHGGGAFSGKDPSKVDRSAAYAARYVAKNIVAAGLADRCEIQVSYAIGVAEPTSIMVETFGTEKVPSEQLTLLVREFFDLRPYGLIQMLDLLHPIYKETAAYGHFGREHFPWEKTDKAQLLRDAAGLK
MetK [1]
  Activity (CPM SAMe/ μg purified protein/min): 1.9 CPM SAMe/ μg purified protein/min
MetK [2]
  Expected Effect on SAMe synth: kcat reduction: kcat reduction of ~ 103 fold

B8: WT control: wild type C-terminal His-tagged MetK protein used as a control (protein, UniProt P0A817 2-384, looked up)
S-adenosylmethionine synthase: AKHLFTSESVSEGHPDKIADQISDAVLDAILEQDPKARVACETYVKTGMVLVGGEITTSAWVDIEEITRNTVREIGYVHSDMGFDANSCAVLSAIGKQSPDINQGVDRADPLEQGAGDQGLMFGYATNETDVLMPAPITYAHRLVQRQAEVRKNGTLPWLRPDAKSQVTFQYDDGKIVGIDAVVLSTQHSEEIDQKSLQEAVMEEIIKPILPAEWLTSATKFFINPTGRFVIGGPMGDCGLTGRKIIVDTYGGMARHGGGAFSGKDPSKVDRSAAYAARYVAKNIVAAGLADRCEIQVSYAIGVAEPTSIMVETFGTEKVPSEQLTLLVREFFDLRPYGLIQMLDLLHPIYKETAAYGHFGREHFPWEKTDKAQLLRDAAGLK
modifications: C-terminal His tag
MetK [1]
  Activity (CPM SAMe/ μg purified protein/min): 995.4 CPM SAMe/ μg purified protein/min

B9: Cys 90 Ser (protein, UniProt P0A817 2-384, looked up, variant C90S)
S-adenosylmethionine synthase: AKHLFTSESVSEGHPDKIADQISDAVLDAILEQDPKARVACETYVKTGMVLVGGEITTSAWVDIEEITRNTVREIGYVHSDMGFDANSSAVLSAIGKQSPDINQGVDRADPLEQGAGDQGLMFGYATNETDVLMPAPITYAHRLVQRQAEVRKNGTLPWLRPDAKSQVTFQYDDGKIVGIDAVVLSTQHSEEIDQKSLQEAVMEEIIKPILPAEWLTSATKFFINPTGRFVIGGPMGDCGLTGRKIIVDTYGGMARHGGGAFSGKDPSKVDRSAAYAARYVAKNIVAAGLADRCEIQVSYAIGVAEPTSIMVETFGTEKVPSEQLTLLVREFFDLRPYGLIQMLDLLHPIYKETAAYGHFGREHFPWEKTDKAQLLRDAAGLK
MetK [1]
  Activity (CPM SAMe/ μg purified protein/min): 23.2 CPM SAMe/ μg purified protein/min
MetK [2]
  Expected Effect on SAMe synth: % of WT activity: Only 10% of WT
